We go through two molecules from US20170212117A1 (RANDOX LABORATORIES, published 2017).

Data set [1] has as its target T1, Recombinant human mature SLPI (Secretory leukocyte protease inhibitor).
T1 chain: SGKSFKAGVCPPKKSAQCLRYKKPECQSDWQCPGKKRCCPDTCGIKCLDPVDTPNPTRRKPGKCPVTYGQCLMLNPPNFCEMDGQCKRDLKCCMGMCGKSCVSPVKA

Data set [2] concerns the target T2, Recombinant human mature SLPI (Secretory leukocyte protease inhibitor) (human, UniProt P03973 26-132).
T2 construct: Bought from R&D Systems (product number 1274-PI-100); also called full length SLPI; full-length SLPI
Briefly: sandwich ELISA, hybridoma supernatant as capture, biotinylated anti-SLPI PAb BAF1274 as detector. The method, then:
FIG. 4. Detection of C-SLPI in CF sputum samples. CF sputum samples were assayed via ELISA for the presence of C-SLPI using the supernatant from hybridoma clone C5.5 as a capture antibody. Standard curve generated by assaying known concentration of C-SLPI produced by incubation of recombinant SLPI with NE (A). C-SLPI concentrations in 63 sputum samples derived from CF patients as identified via ELISA using C5.5 as a capture antibody (B).
A Maxisorp plate (Nunc) was coated for 16 h at 4° C. with 100 μl/well hybridoma supernatant diluted 1:50 in Voller's reagent. Cell free hybridoma supernatants were acquired directly from individual cultures by centrifugation at 1,400 rpm for 5 min. The plate was blocked with 200 μl 1% BSA in PBST 0.05% (v/v) Tween 20 for 1 h at room temperature. Either a half concentration dilution series of 200 ng/ml to 3.125 ng/ml of both C-SLPI and SLPI (100 μl/well) in 1% BSA in PBST 0.05% (v/v) Tween 20 or CF sputum samples diluted 1:50 v/v in 1% BSA in PBST 0.05% (v/v) Tween 20 were added to the plate and incubated for 2 h at room temperature. Control wells received NE alone. […] The absorbance at 405 nm of wells was measured on a microtiter plate reader (Genios using Magellan software) and results were analyzed using GraphPad Prism version 6 (GraphPad Software).
(In an ELISA, binding on a coated surface is turned into a signal by an enzyme label.)

B1: Human neutrophil elastase (human sputum derived NE, Elastin Products SE563) (protein)
chain: IVGGRRARPHAWPFMVSLQLRGGHFCGATLIAPNFVMSAAHCVANVNVRAVRVVLGAHNLSRREPTRQVFAVQRIFENGYDPVNLLNDIVILQLNGSATINANVQVAQLPAQGRRLGNGVQCLAMGWGLLGRNRGIASVLQELNVTVVTSLCRRSNVCTLVRGRQAGVCFGDSGSPLVCNGLIHGIASFVRGGCASGLYPDAFAPVAQFVNWIDSIIQ
Consider B1, for which the “SLPI cleavage by NE (Western blot)” value in data set [1] is “Successful cleavage of SLPI was observed at molar ratios of 1:4, 1:8 and 1:10 SLPI to NE”.

B2: C5.5 monoclonal antibody (supernatant of hybridoma clone C5.5) (antibody, V domains shown)
VH: EVQLVESGGGLVHPQGSLKLSCTASGFTFNTYDMNWVRQAPGKGLEWVARIRTKSYYYATYYADSVKDRFTISRDDSQTMLYLQLNNLKTEDTALYYCVRRSGNYGAMDYWGQGTSVTVSS
VL: QIVLTQSPAIMSASLGERVTMTCTASSSVSSSYLHWYQQKPGSSPKLWIYSTSNLASGVPARFSGSGSGTSYSLTISSMEAEDAATYYCHQYHRSPRTFGGGTKLEIK
notes: Used as cell-free hybridoma supernatant coated on the plate (capture antibody); also called C5.5 supernatant
As to B2, in data set [2], the binding result is listed as “no binding (tested: 200 ng/ml to 3.125 ng/ml)”.
